Biological target: RSV F DS-Cav1 (human respiratory syncytial virus | bacteriophage T4) (UniProt P03420)
Assay: SEC

## RSV F DS-Cav1 (from UniProt P03420 26-109; P03420 137-513) (domain or fragment)
  stoichiometry N: 3
